Values of other authors as cited in PMC3290099.

Biological target: CIB1 (Homo sapiens) (UniProt Q99828)
UniProt Q99828, sequence (Q99828 2-191): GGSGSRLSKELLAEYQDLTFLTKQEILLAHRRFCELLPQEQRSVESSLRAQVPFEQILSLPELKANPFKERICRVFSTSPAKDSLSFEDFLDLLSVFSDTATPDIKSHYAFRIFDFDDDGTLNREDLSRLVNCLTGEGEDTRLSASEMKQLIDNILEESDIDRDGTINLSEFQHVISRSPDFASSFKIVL

Substance: Integrin αIIb (from UniProt P08514)
- Kd: 1400 nM
